Assay results published in patent US20100047255A1 (Harvard, published 2010).

Assays:
[1] = biological target: Nedd8 (endogenous protein of 293T cells) (human, UniProt Q15843 1-76); test: anti-Nedd8 immunoblot of anti-HA immune complexes from 293T cells, non-reducing SDS-PAGE
[2] = biological target: ubiquitin (endogenous protein of 293T cells) (human, UniProt P0CG48 1-76); test: LC/MS/MS (LTQ-Orbitrap) of Flag-HA-Uba6˜Ub purified from mammalian cells

Nedd8 (endogenous protein of 293T cells), sequence (Q15843 1-76 limits assumed): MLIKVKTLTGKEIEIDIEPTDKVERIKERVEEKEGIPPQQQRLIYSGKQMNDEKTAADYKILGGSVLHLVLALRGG

| Binder | binding result [1] | binding result [2] |
| --- | --- | --- |
| Flag-HA-Uba6^C625S (enzyme, Catalytic cysteine changed to serine; also called C625S mutant; Flag-HA-Ub6^C625S; not shown: N-terminal Flag-HA tag) MEGSEPVAAHQGEKASCSSWGTGSTNKNLPIMSTASVEIDDALYSRQRYVLGDTAMQKMAKSHVFLSGMGGLGLEIAKNLVLAGIKAVTIHDTEKCQAWDLGTNFFLSEDDVVNKRNRAEAVLKHIAELNPYVHVTSSSAPFNETTDLSFLDKYQCVVLTEMKLPLQKKINDFCRSQCPPIKFISADVHGIWSRLFCDFGDEFEVLDTTGEEPKEIFISNITQTNPGIVTCLENHPHKLETGQFLTFREINGMTGLNGSIQQITVISPFSFSIGDTTELEPYLHGGIAVQVKTPKTVFFESLERQLKHPKCLIVDFSNPEAPLEIHTAMLALDQFQEKYSRKPNVGCQQDSEELLKLATSISETLEEKPDVNADIVHWLSWTAQGFLSPLAAAVGGVASQEVLKAVTGKFSPLCQWLYLEAADIVESLGKPECEEFLPRGDRYDALRACIGDTLCQKLQNLNIFLVGCGAIGCEMLKNFALLGVGTSKEKGMITVTDPDLIEKSNLNRQFLFRPHHIQKPKSYTAADATLKINSQIKIDAHLNKVCPTTETIYNDEFYTKQDVIITALDNVEARRYVDSRCLANLRPLLDSGTMGTKGHTEVIVPHLTESYNSHRDPPEEEIPFSTLKSFPAAIEHTIQWARDKFESSFSHKPSLFNKFWQTYSSAEEVLQKIQSGHSLEGCFQVIKLLSRRPRNWSQCVELARLKFEKYFNHKALQLLHCFPLDIRLKDGSLFWQSPKRPPSPIKFDLNEPLHLSFLQNAAKLYATVYCIPFAEEDLSADALLNILSEVKIQEFKPSNKVVQTDETARKPDHVPISSEDERNAIFQLEKAILSNEATKSDLQMAVLSFEKDDDHNGHIDFITAASNPRAKMYSIEPADRFKTKRIAGKIIPAIATTTATVSGLVALEMIKVTGGYPFEAYKNCFLNLAIPIVVFTETTEVRKTKIRNGISFTIWDRWTVHGKEDFTLLDFINAVKEKYGIEPTMVVQGVKMLYVPVMPGHAKRLKLTMHKLVKPTTEKKYVDLTVSFAPDIDGDEDLPGPPVRYYFSHDTD | no binding | – |
| Flag-HA-Uba6 (enzyme, also called HA-Flag-Uba6; wild-type Uba6 with N-terminal Flag-HA tag; not shown: N-terminal Flag-HA tag) MEGSEPVAAHQGEKASCSSWGTGSTNKNLPIMSTASVEIDDALYSRQRYVLGDTAMQKMAKSHVFLSGMGGLGLEIAKNLVLAGIKAVTIHDTEKCQAWDLGTNFFLSEDDVVNKRNRAEAVLKHIAELNPYVHVTSSSAPFNETTDLSFLDKYQCVVLTEMKLPLQKKINDFCRSQCPPIKFISADVHGIWSRLFCDFGDEFEVLDTTGEEPKEIFISNITQTNPGIVTCLENHPHKLETGQFLTFREINGMTGLNGSIQQITVISPFSFSIGDTTELEPYLHGGIAVQVKTPKTVFFESLERQLKHPKCLIVDFSNPEAPLEIHTAMLALDQFQEKYSRKPNVGCQQDSEELLKLATSISETLEEKPDVNADIVHWLSWTAQGFLSPLAAAVGGVASQEVLKAVTGKFSPLCQWLYLEAADIVESLGKPECEEFLPRGDRYDALRACIGDTLCQKLQNLNIFLVGCGAIGCEMLKNFALLGVGTSKEKGMITVTDPDLIEKSNLNRQFLFRPHHIQKPKSYTAADATLKINSQIKIDAHLNKVCPTTETIYNDEFYTKQDVIITALDNVEARRYVDSRCLANLRPLLDSGTMGTKGHTEVIVPHLTESYNSHRDPPEEEIPFCTLKSFPAAIEHTIQWARDKFESSFSHKPSLFNKFWQTYSSAEEVLQKIQSGHSLEGCFQVIKLLSRRPRNWSQCVELARLKFEKYFNHKALQLLHCFPLDIRLKDGSLFWQSPKRPPSPIKFDLNEPLHLSFLQNAAKLYATVYCIPFAEEDLSADALLNILSEVKIQEFKPSNKVVQTDETARKPDHVPISSEDERNAIFQLEKAILSNEATKSDLQMAVLSFEKDDDHNGHIDFITAASNPRAKMYSIEPADRFKTKRIAGKIIPAIATTTATVSGLVALEMIKVTGGYPFEAYKNCFLNLAIPIVVFTETTEVRKTKIRNGISFTIWDRWTVHGKEDFTLLDFINAVKEKYGIEPTMVVQGVKMLYVPVMPGHAKRLKLTMHKLVKPTTEKKYVDLTVSFAPDIDGDEDLPGPPVRYYFSHDTD | – | binds |
